The nature of this series: label from the status in PepcDB records.
As to “MRQIGNRRVAPLAILAAVLMGGPTNASTGEFKVAYLYNLSDFTGTIPYSLAKIALDATARETYVISGETVKVFNNSGMEVYRFTNTMESGIVYDAAIDEQGRILVLAYNNGTPSLLLCNYRAEPIKPIEFKGLPEKLAAFKPNRLMLRDGKICLVSLGSMMVVMLDPEGNYVKHIDLAEASSVTEEDRLNTGIGAVAFDSDGSVLFTSPVTGKVFRISANGTVESFGKRGSAPGKFGVPTGIAVDGLGNYYISDKLRCAILVFDRQFKFIYEFGGRGDAPGSLVGPDDLAIDAEGKLYVGQLGNRGVSVFKVTHD”, the protein production entry is listed as “failed”. For “MVSDAALHGKLAVEHASDHLVVLAQADSGPITVDQFKEKLKEVQQEEQLGWLTAIGKYFIGIFQKGGEVFAGFVTGIIPTLVVLMTAFYAVTELVGEERVHGLARGAGRIALTRYTLLPLLAVFFLTNPMAYTFGSFLEEKHKPAFYDAAVSYVHPPLGLFPHINPGEYFVWGGILVALLELEKKGVVVAGYHVKVAIWYAIVGLVVILLKGMLTERITTIMARRQGVEL” the value was “failed”. For “MDKIGMTNQITGVISKFDTNIRTIVLNAKDGIFTCNLMIFVKNTDKLTTLMDKLRKVQGLEHHHHHH” the value was “failed”. For “MINLELFKEFLLNLIKDYGYFGIFLVGFSEPIFQPFPTEIFIIAGILLGLDWKLVWLISTIACNFGAVVTYYLAKKYGEKLMLKLFDEEKIKKGSHYLKKWGILGVIIASFTPIPFEVICWVCGSFEMPFERYMIAVFLSRLIRHGMVILPFVLKDHIHF” the value was “failed”.

“MTLGLTPKFVKIFLFVGLMLLSTSLAVIFPLNSVEGLGSGVTKTVLDNGLTVLIKEIPTAPVVSLQVWYRVGSRHEPKGENGIAHQLEHLMFKGTQSRPVQFGQLFYALGSSSNAFTSYDMTAYHHTVRADQLEPLLILEADRLRHTLITPDALESEKRVVISELQGYENSPEYRLSRAVMAALYPKHPYGLPVGGTASDVEQLTLAAVKSFYQQYYRPDNAVVVIAGNVRAARALELVKSTFGAIPQPPEPLISPPLPPPGAVSGQRIRLREPGSAPLLQILVPIPGITHPDQAALDVLDMLLSGGRSSYFYQELMETGQASSAYSYVAALQEGGWFEMGAIASPDQSLETIEQSIGKMLQQLAERPLSLAELQRAKQQLKANFILRNRDIDAQASQLANDETLTGDYRFSDRHLAAIEKVTAADVQRVVQTYFGRDRWIVGEFIPSEFADVELSGRPAVQTTAHNLIGEPVDPQTIAAYLPQGSAQAAPAVKNNGVETFTLENGLRVLLLVDRSTPTVTLAGRIDAGTAYDLLTQPGVANLTAANLLNGTRTKTALTLAQTLEDRGISLEFSAFRDGVDVEGYALASELPTLLATLGEVLQEATFPEAEFKLSQQRYLTALGLEADDPVRWGRRVLQETLYPAHHPLHPFATPESVQAIQRQDLLNFYRAAYRPDRTILTLVGDFDPLAVRSRLKDIFGPWQPPTAPLSLTFPAVSPPPQTLFRNAVIAGKSQAITYLGTPGIDRRHPRFYAAMLMNHILGGDTLASRLGTEIRDRQGLTYGIYSFFTASRQAGPFMIQLQTAPEDTAKAIQATLQLLREARRQGFTAAELEAAKRSLSNTYLVELANVDVVARTLLANASVDLPPQELQQFSDRLQQVSLAEVNQALRELIDPERLVIVTAGPAVSFSP”: the protein production result is “failed”.

On to “MQFQIGDMVARKSYQMDVLFRIIGIEQTSKGNSIAILHGDEVRLIADSDFSDLVAVKKDEQMMRKKKDESRMNESLELLRQDYKLLREKQEYYATSQYQHQEHYFHMPGKVLHLDGDEAYLKKCLNVYKKIGVPVYGIHCHEKKMSASIEVLLDKYRPDILVITGHDAYSKQKGGIDDLNAYRHSKHFVETVQTARKKIPHLDQLVIFAGACQSHFESLIRAGANFASSPSRVNIHALDPVYIVAKISFTPFMERINVWEVLRNTLTREKGLGGIETRGVLRIGMPYKSN”, for which the protein production result was “not failed”. “MNCIIAQSGGPTSVINASVYGLVKANKKLNLYENVYGGLNGIEGILNKKIINLSDLDELQLERFKNSPASGLGSCRYKLKPLSESEDEYLKLLDILNSLNIKAFFYVGGNDSMDTTAKLNAFAKAKNIDIKFFGIPKTIDNDLMHTDHTPGFGSAAKFISTAVLETYLDSKVYTNNGIFIIETMGRDTGWLAASGALATINGNKCADLVYLPERAFSVQSFLTDVARIFKEKKHVYIVASEGLKDENGKFLTETAPNDDSFGHAQLGGVGAYLKNLIIQASITHRVKSLELNTLQRCSMHASSKIDVNEAVMVGQAALEASINSEGGYMVAIRRDSSFPYKSSTFLIEADKIANNIKYFPSEWINEEGNNITEEGLLYLKPLISDFEDRDSLPLYHSFVL”: the protein production result is reported as “failed”. For “MDQKEAPSFTEASVHDPSVIKVEDTFYVFGSHLAAAKTEDLRNWTQIATHVHEGNPLIPNVFVELAEAFEWANSNTLWAADVIQLEDGRFYMYYNACQGDAPRSALGVAVADDIEGPYENLGVFLKSGMWGEESPDGTIYDANVHPNAIDPHVFFDEEGKLWMVYGSYSGGIFILEMDPDTGFPLPGQGYGTHLMGGNHSRIEAPYIHYDKETEYYYLYVTFGGLDSTGGYNMRVARSKQPDGPYVDGEGHLMSEVRGAPGTLFDDASIEPYGVKQMGNFLFKRELGERGTGYVSPGHNSVYYDDEVDKIFLFFHTRFPERGEAHEIRVHQMFMNRKGWPVIAPYRYTGESLEKVKAKEVIGDYQWINHGKEISAEIKESVTVRLEKNHKVLGDVTGKWKKVGDYHVELQIDGETYYGVFLRQWDPVAEREVMTFTALSEEGIAIWGSQLEEKTDNEIVDAVYDDLTLEGTIISDVELPTRGMRQTTIAWSSSHEEVLSSSGKVNRPEIGEDDVVVSLTATISKGSAERIKTFELVVPGQTEGGLVAHYPLNGTLENAVDDARFGSGTVTGNRIDNPGGTIAFEQGIDGEAAVFDGTTGIRLPNGLISRNTYTVSFWLNPEQLTEFTTAFFAARSEHHWLSFVPRGHSGMNHDTMLWAGSAQWYDAGTGVKLPVGEWSHVAFSVDNGEIVIYLNGEERFRGENFPNLFTTPNAYFALGVNHWDAPFQGMIDELRIYDGVALTREEIVHLAKQKLEHHHHHH” the value was “not failed”; for “MDVYHDGACPEVKPVDNFDWSQYHGKWWEVAKYPSPNGKYGKCGWAEYTPEGKSVKVSRYDVIHGKEYFMEGTAYPVGDSKIGKIYHSRTVGGYTKKTVFNVLSTDNKNYIIGYSCRYDEDKKGHWDHVWVLSRSMVLTGEAKTAVENYLIGSPVVDSQKLVYSDFSEAACKVNNSNWSHPQFEK”, “not failed”. For “ALPPEPKEENAEPVSKLRIRTPSGEFLERRFLASNKLQIVFDFVASKGFPWDEYKLLSTFPRRDVTQLDPNKSLLEVKLFPQETLFLEAKE” the value was “failed”; for “MKRKKPTIHDVAAKAGVGLGTVSRVLNDHPAVRHETRARVLRAMEELGYAPNPHARRIAGGRSYTVSVLLPFVATEFYRRLVEGIEGVLLEQRYDLALFPILSLARLKRYLENTTLAYLTDGLILASYDLTERFEEGRLPTERPVVLVDAQNPRYDSVYLDNRLGGRLAGAYLARFPGPIFAIAVEEEPDRAFRRTVFAERMAGFQEALKEAGRPFSPDRLYITRHSQEGGRLALRHFLEKASPPLNVFAGADQV”, “not failed”; for “MTKAETSIGVFYVSEYGYSDRLAQAIINGITKTGVGVDVVDLGAAVDLQELRELVGRCTGLVIGMSPAASAASIQGALSTILGSVNEKQAVGIFETGGGDDEPIDPLLSKFRNLGLTTAFPAIRIKQTPTENTYKLCEEAGTDLGQWVTRDRSIKAMKSLGLEHHHHHH”, “not failed”.

For the sequence “MDTVTKLSIIIPAWNEETGIARTLETLLALTAGRGDTEIIVSVSGNDRTKAIARTFPVVVCHSEKGRAVQMNAGAKLATGSILYFLHADTTPPPSFCDDIFSAIERGARAGCFRMTFDDPDWLMQLYGWFTQFPLPVCRGGDQSLFITKELFGQIGGFDERLQIMEDIEIIDRLQRHAGFHILDSTVTTSARKYHTNGTVRLQAIFGTIHLMYALGFSQKNIVAFYRDSIRLEHHHHHH”, the protein production result is “not failed”. For “MGDSMSLDWDKLRIFHAAAEAGSFTHAADKLHLSQSAISRQVSSLEQDVGIKLFHRHARGLILTEQGEMLYRTAHDVLMKLESVKAQLSETTDKPSGKLRITTTVGLGQGWLTDKIQEFMSLYPEIQVQLILDNEELDVNMRHADCAIRLRQPQQSDLIQRKLFTVHMHVYAAPSYINKYGEPQSLDDLDNHRIITFGEPAPNYLLDVNWLEIAGRDSDNPRISHLQINSQTSIKRACLLGIGIAMLPDYIVGRDPGLIQLPISADIPSFDTYFCYPDELKNAAKLKVFRDYIVAKARNWNF” the value was “failed”.

The values above are taken from a protein production outcome set (Wang et al. 2014).
